Km, kcat and kcat/Km data for two proteins are collected here from PMC2946590, “Replication Past the γ-Radiation-Induced Guanine-Thymine Cross-Link G[8,5-Me]T by Human and Yeast DNA Polymerase η” (Journal of Nucleic Acids, 2010).

Substrate in series [1]: Nc1ncnc2c1ncn2[C@H]1C[C@H](O)[C@@H](COP(=O)(O)OP(=O)(O)OP(=O)(O)O)O1
In words: purified protein. Particulars: undamaged 26-mer template, misincorporation opposite G, 6.4 nM enzyme, 50 nM template-primer, 25 mM Tris-HCl pH 7.5, 5 mM MgCl2, 5 mM DTT, 37 °C. The format is biochemical, Homo sapiens.

Substrate in series [2]: Nc1ncnc2c1ncn2[C@H]1C[C@H](O)[C@@H](COP(=O)(O)OP(=O)(O)OP(=O)(O)O)O1
Kind of series: purified protein. The format is biochemical, Saccharomyces cerevisiae. Conditions: undamaged 26-mer template, misincorporation opposite G, 6.4 nM enzyme, 50 nM template-primer, 25 mM Tris-HCl pH 7.5, 5 mM MgCl2, 5 mM DTT, 37 °C.

B1: human DNA polymerase η (hPol η) (Homo sapiens) (protein)
chain: MATGQDRVVALVDMDCFFVQVEQRQNPHLRNKPCAVVQYKSWKGGGIIAVSYEARAFGVTRSMWADDAKKLCPDLLLAQVRESRGKANLTKYREASVEVMEIMSRFAVIERASIDEAYVDLTSAVQERLQKLQGQPISADLLPSTYIEGLPQGPTTAEETVQKEGMRKQGLFQWLDSLQIDNLTSPDLQLTVGAVIVEEMRAAIERETGFQCSAGISHNKVLAKLACGLNKPNRQTLVSHGSVPQLFSQMPIRKIRSLGGKLGASVIEILGIEYMGELTQFTESQLQSHFGEKNGSWLYAMCRGIEHDPVKPRQLPKTIGCSKNFPGKTALATREQVQWWLLQLAQELEERLTKDRNDNDRVATQLVVSIRVQGDKRLSSLRRCCALTRYDAHKMSHDAFTVIKNCNTSGIQTEWSPPLTMLFLCATKFSASAPSSSTDITSFLSSDPSSLPKVPVTSSEAKTQGSGPAVTATKKATTSLESFFQKAAERQKVKEASLSSLTAPTQAPMSNSPSKPSLPFQTSQSTGTEPFFKQKSLLLKQKQLNNSSVSSPQQNPWSNCKALPNSLPTEYPGCVPVCEGVSKLEESSKATPAEMDLAHNSQSMHASSASKSVLEVTQKATPNPSLLAAEDQVPCEKCGSLVPVWDMPEHMDYHFALELQKSFLQPHSSNPQVVSAVSHQGKRNPKSPLACTNKRPRPEGMQTLESFFKPLTH
notes: recombinant, purchased from Enzymax LLC (Lexington, KY)
With B1, in “purified protein [1]”, the Michaelis constant (Km) is 6.5 ± 0.03 µM, the kcat was 0.104 ± 0.00017 s⁻¹ and the catalytic efficiency (kcat/Km) was 16000 M⁻¹ s⁻¹.

B2: yeast DNA polymerase η (yPol η) (Saccharomyces cerevisiae S288C) (protein)
chain: MSKFTWKELIQLGSPSKAYESSLACIAHIDMNAFFAQVEQMRCGLSKEDPVVCVQWNSIIAVSYAARKYGISRMDTIQEALKKCSNLIPIHTAVFKKGEDFWQYHDGCGSWVQDPAKQISVEDHKVSLEPYRRESRKALKIFKSACDLVERASIDEVFLDLGRICFNMLMFDNEYELTGDLKLKDALSNIREAFIGGNYDINSHLPLIPEKIKSLKFEGDVFNPEGRDLITDWDDVILALGSQVCKGIRDSIKDILGYTTSCGLSSTKNVCKLASNYKKPDAQTIVKNDCLLDFLDCGKFEITSFWTLGGVLGKELIDVLDLPHENSIKHIRETWPDNAGQLKEFLDAKVKQSDYDRSTSNIDPLKTADLAEKLFKLSRGRYGLPLSSRPVVKSMMSNKNLRGKSCNSIVDCISWLEVFCAELTSRIQDLEQEYNKIVIPRTVSISLKTKSYEVYRKSGPVAYKGINFQSHELLKVGIKFVTDLDIKGKNKSYYPLTKLSMTITNFDIIDLQKTVVDMFGNQVHTFKSSAGKEDEEKTTSSKADEKTPKLECCKYQVTFTDQKALQEHADYHLALKLSEGLNGAEESSKNLSFGEKRLLFSRKRPNSQHTATPQKKQVTSSKNILSFFTRKK
notes: as for B1
In the case of B2, in “purified protein [2]”, the Michaelis-Menten constant (Km) is 9.5 ± 0.002 µM, the turnover number (kcat) is 0.0883 ± 0.0005 s⁻¹ and the kcat/Km worked out at 9330 M⁻¹ s⁻¹.
